Measurements as given in US20230129258A1 (Bicycle, published 2023).
Starred links: 1 amine or outer side, 2 acyl side, 3 side chain; linkers in the order of their positions; H or OH if unused. Positions of bridges follow the written chain, without caps; N, C: chain ends. Non-standard residues stand in square brackets, D forms with d. Groups on a side chain read outwards from the residue. Primed or numbered codes have the meaning given here. Chains are numbered I, II in the order given. No end group written: not given here. *: point of attachment. dLys(PYA) = D-lysine Nε-acylated with 4-pentynoic acid, clicked (triazole) to the linker azide, O=C(CCc1cn([*:3])nn1)NCCCC[C@@H](N[*:1])C(=O)[*:2]; TATA = O=C(CC[*:1])N1CN(C(=O)CC[*:2])CN(C(=O)CC[*:3])C1; Biotin = O=C1N[C@H]2[C@H](CS[C@H]2CCCCC(=O)*)N1; 1Nal = N[C@@H](Cc1cccc2ccccc12)C(=O)O; Hyp = O=C(O)[C@@H]1C[C@@H](O)CN1; hArg = N=C(N)NCCCC[C@H](N)C(=O)O; tBuAla = CC(C)(C)C[C@H](N)C(=O)O; PEG12′ = not defined here; Nle = CCCC[C@H](N)C(=O)O

Experiments:
[1] = biological target: T1, CD137 on Jurkat reporter cells (Promega kit CS196005) (UniProt Q07011 24-255, limits assumed); test: cell-based or functional assay
[2] = biological target: T2, cyno (NHP) CD137 extracellular domain (cyno (NHP), UniProt A9YYE7 24-186); test: SPR direct binding, captured BCY13582, soluble CD137 ECD, n = 1
T2 construct: extracellular domain

[3] = biological target: T3, rat CD137 extracellular domain (rat, UniProt Q4W8J3 24-189); test: SPR direct binding, captured BCY13582, n = 1
T3 sequence: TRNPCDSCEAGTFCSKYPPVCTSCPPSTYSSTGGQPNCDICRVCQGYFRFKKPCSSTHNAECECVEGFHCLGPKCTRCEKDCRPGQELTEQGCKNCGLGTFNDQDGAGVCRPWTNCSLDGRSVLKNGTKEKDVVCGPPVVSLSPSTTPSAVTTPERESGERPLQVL

[4] = biological target: T4, mouse CD137 extracellular domain (mouse, UniProt P20334 24-187); test: SPR direct binding, captured BCY13582, n = 1
T4 construct: extracellular domain
T4 sequence (looked up): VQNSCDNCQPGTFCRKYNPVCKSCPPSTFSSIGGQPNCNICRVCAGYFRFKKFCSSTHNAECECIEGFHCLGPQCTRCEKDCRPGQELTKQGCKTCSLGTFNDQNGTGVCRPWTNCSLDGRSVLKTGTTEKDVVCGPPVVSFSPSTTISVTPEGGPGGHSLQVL

soluble OX40 = biological target: T5, soluble OX40 (UniProt P43489 29-216, limits assumed); test: SPR, streptavidin captured BCY13582, soluble receptor
T5 construct: also called soluble TNF family receptor OX40
T5 sequence (looked up): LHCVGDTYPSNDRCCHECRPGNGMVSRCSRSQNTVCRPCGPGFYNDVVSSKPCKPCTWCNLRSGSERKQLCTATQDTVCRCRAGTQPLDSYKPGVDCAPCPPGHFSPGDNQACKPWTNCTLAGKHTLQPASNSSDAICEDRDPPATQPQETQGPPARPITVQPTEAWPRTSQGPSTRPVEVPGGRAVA

soluble CD40 = biological target: T6, soluble CD40 (UniProt P25942 21-193, limits assumed); test: as above
T6 construct: also called soluble TNF family receptor CD40

[5] = biological target: T1, CD137 on Jurkat reporter cells (Promega …); test: cell-based or functional assay; remark: listed apart in the source
GPR39 = biological target: T7, GPR39 (human, UniProt O43194); test: Retrogenix cell microarray, HEK293 cells over-expressing the protein, detection with AlexaFluor647 streptavidin
T7 construct: full-length protein over-expressed in HEK293 cells
T7 sequence (single chain, looked up): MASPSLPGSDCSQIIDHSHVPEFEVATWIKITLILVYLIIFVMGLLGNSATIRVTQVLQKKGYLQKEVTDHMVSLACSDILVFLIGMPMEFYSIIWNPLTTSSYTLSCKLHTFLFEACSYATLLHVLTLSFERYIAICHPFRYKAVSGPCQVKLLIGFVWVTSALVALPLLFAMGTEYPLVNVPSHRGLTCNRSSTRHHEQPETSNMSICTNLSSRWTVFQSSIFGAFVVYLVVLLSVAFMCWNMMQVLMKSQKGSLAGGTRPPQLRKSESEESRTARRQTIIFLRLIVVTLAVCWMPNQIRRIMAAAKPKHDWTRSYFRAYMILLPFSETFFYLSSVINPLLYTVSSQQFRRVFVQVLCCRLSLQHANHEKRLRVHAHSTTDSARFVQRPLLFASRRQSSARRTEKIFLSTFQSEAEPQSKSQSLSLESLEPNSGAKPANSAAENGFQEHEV

METTL24 = biological target: T8, METTL24 (human, UniProt Q5JXM2); test: as above
T8 construct: full-length protein over-expressed in HEK293 cells
T8 sequence (single chain, looked up): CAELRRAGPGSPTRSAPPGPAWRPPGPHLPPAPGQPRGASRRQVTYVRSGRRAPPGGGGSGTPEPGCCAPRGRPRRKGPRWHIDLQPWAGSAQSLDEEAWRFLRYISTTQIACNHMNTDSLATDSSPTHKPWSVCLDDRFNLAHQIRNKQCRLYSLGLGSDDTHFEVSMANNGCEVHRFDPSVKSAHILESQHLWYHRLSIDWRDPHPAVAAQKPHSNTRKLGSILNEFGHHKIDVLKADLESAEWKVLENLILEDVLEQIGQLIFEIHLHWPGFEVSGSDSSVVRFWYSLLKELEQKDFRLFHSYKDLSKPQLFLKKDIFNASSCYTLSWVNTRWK

IGFBP1 = biological target: T9, IGFBP1 (human, UniProt P08833); test: as above
T9 construct: full-length protein over-expressed in HEK293 cells
T9 sequence (single chain, looked up): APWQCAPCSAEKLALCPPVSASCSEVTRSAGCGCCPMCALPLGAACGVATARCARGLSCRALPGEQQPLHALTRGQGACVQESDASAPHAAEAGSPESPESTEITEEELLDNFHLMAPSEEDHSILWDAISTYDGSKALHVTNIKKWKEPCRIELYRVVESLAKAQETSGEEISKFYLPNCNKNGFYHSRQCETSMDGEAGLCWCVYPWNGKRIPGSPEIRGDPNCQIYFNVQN

HMGB2 = biological target: T10, HMGB2 (human, UniProt P26583); test: as above
T10 construct: full-length protein over-expressed in HEK293 cells
T10 sequence (single chain, looked up): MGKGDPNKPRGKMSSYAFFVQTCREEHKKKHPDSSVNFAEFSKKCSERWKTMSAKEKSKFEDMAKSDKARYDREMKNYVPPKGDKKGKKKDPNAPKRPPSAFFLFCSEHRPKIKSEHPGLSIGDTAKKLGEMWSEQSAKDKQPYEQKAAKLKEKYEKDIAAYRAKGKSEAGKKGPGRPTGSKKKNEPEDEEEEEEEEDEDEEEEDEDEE

EVA1C = biological target: T11, EVA1C (human, UniProt P58658); test: as above
T11 construct: full-length protein over-expressed in HEK293 cells
T11 sequence (single chain, looked up): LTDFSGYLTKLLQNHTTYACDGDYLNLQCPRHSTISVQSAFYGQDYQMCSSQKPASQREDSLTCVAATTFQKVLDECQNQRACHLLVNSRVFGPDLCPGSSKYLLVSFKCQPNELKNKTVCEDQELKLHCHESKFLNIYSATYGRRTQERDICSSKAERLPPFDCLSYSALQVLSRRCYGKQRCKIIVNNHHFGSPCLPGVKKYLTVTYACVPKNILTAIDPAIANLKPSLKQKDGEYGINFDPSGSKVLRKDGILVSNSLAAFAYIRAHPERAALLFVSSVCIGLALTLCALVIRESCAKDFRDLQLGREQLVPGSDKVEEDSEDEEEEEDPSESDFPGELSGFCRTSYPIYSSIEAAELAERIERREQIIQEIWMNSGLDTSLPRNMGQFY

APLN = biological target: T12, APLN (human, UniProt Q9ULZ1); test: as above
T12 construct: full-length protein over-expressed in HEK293 cells
T12 sequence (single chain, looked up): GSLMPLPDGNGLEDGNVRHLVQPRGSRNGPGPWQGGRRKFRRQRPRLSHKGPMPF

[6] = biological target: T13, human CD137 extracellular domain (human, UniProt Q07011 24-186, biotinylated where captured on the streptavidin chip); test: SPR direct binding, captured BCY13582, soluble CD137 ECD, n = 3
T13 construct: extracellular domain; Section 17 says only 'Recombinant human CD137 (R&D systems)'; also called CD137 (human); Recombinant human CD137 (R&D systems)
T13 sequence (Q07011 24-186): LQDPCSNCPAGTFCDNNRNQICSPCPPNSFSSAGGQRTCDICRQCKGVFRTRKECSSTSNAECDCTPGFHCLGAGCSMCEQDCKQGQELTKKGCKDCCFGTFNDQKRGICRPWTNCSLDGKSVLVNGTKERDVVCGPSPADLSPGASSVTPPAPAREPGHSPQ

T1 sequence (Q07011 24-255 limits assumed): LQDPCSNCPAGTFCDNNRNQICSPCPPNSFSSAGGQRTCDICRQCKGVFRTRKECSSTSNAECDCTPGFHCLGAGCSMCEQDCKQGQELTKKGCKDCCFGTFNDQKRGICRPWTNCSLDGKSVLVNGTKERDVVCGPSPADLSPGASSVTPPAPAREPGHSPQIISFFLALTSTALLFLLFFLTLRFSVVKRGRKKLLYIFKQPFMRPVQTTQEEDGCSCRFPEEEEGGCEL
T6 sequence (P25942 21-193 limits assumed): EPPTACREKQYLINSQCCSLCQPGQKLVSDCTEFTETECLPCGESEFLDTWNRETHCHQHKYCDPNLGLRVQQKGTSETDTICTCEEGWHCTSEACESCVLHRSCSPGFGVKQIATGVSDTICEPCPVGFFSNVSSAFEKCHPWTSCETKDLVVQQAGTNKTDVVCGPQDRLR
T2 sequence (A9YYE7 entry or part of it): as the sequence (Q07011 24-186) above, with P4L, N19S, R50K, T66I, P67S, F69Y, G75E, V149A counted along it

B1: BCY13582 (biotinylated BCY11863) (peptide)
peptide 1: CP[1Nal][dD]CM[hArg]DWSTP[Hyp]WC
peptide 2: Ac-C[tBuAla]PE[dLys(PYA)]PYCFADPY[Nle]CA
peptide 3: Ac-C[tBuAla]PE[dLys(PYA)]PYCFADPY[Nle]CK([PEG12′-Biotin])
modifications: linker I:1-I:5-I:15, II:1-II:8-II:15, III:1-III:8-III:15 via TATA; also: linker at chain B 5 at chain C 5 to a chain's N-terminus via N-(acid-PEG3)-N-bis(PEG3-azide)
notes: also called test peptide
Arithmetic mean EC50 (nM), HT1376 co-culture [1]: 0.58 nM | Arithmetic mean EC50 (nM), MDA-MB-468 co-culture [1]: 0.34 nM | Kd [2]: 4.23 nM | binding result [3]: no binding | binding result [4]: no binding | binding result (soluble OX40): no binding (tested: 100 nM) | binding result (soluble CD40): no binding (tested: 100 nM) | EC50 (nM), HT1376 co-culture [5]: 0.58 nM | Emax (fold induction over background), HT1376 [5]: 57 fold over background | binding result (GPR39): no binding (tested: 1 µM) | binding result (METTL24): no binding (tested: 1 µM) | binding result (IGFBP1): no binding (tested: 1 µM) | binding result (HMGB2): no binding (tested: 1 µM) | binding result (EVA1C): no binding (tested: 1 µM) | binding result (APLN): no binding (tested: 1 µM) | Kd [6]: 8.4 nM
